From patent publication US20120232127A1, “REGULATION OF NEUROTRANSMITTER RELEASE THROUGH ANION CHANNELS” (KOREA INSTITUTE OF SCIENCE AND TECHNOLOGY, priority 2008, published 2012)

What was measured:
[1] = target: T1, astrocytic CAAC / mBest1 channel (glutamate release) (Mus musculus, UniProt O88870, R255K); test: Sniffer patch: astrocyte to GluR1 (L497Y)-expressing HEK293T cell pairs, TFLLR-induced glutamate release; type: cell-based; conditions: sniffer patch, lentiviral shRNA expressing astrocytes, TFLLR
T1 construct: endogenous in cells; host or cells: cultured mouse cortical astrocytes
T1 sequence (O88870 1-551 R255K): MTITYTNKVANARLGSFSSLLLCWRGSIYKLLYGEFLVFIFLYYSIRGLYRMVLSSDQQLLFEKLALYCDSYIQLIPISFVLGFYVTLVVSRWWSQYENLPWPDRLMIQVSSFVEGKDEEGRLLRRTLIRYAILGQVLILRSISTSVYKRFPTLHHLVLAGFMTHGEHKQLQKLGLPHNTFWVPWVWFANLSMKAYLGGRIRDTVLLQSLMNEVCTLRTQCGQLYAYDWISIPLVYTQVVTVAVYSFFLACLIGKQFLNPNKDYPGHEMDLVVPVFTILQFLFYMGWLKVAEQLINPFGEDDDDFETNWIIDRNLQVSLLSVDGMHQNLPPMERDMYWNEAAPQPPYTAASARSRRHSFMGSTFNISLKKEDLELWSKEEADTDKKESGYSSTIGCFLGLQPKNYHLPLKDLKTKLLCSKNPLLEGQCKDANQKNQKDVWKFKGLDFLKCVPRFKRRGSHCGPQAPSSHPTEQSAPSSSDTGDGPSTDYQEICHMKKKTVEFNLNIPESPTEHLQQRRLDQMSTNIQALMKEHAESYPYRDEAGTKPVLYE
Method: (§1) The sniffer patch technique, which is used for determining whether or not one is permeable to glutamate, was performed as described in Lee, C. J. et al. Astrocytic control of synaptic NMDA receptors. J Physiol 581, 1057-81 (2007), which is hereby incorporated by reference for all purposes as if fully set forth herein.
(§2) 2. In experiments using astrocyte-HEK293T cell pairs, the sniffer patch techniques used naïve, scrambled- or mBest1-specific shRNA expressing (with GFP) astrocytes as a glutamate source; and GluR1 (L497Y) expressing HEK293T cells (with DsRED) as a detector. After obtaining gigaohm sealing, GluR1 (L497Y)-expressing cell was firstly ruptured, and then counterpart astrocytes were pressure-applied with 500 uM of TFLLR to evoke an increase in astrocytic intracellular Ca^2+ and resulting glutamate release onto the adjacent HEK293T cells.
(§3) GluR1LY-expressing detector cells were patched with the pipette solution pH 7.3 containing 110 mM CsGluconate, 30 mM CsCl, 5 mM HEPES, 4 mM NaCl, 2 mM MgCl2, 5 mM EGTA, and 1 mM CaCl2. The percentage of GluR1 (L497Y)-mediated current to the full activation level was analyzed by dividing the current amplitude of GluR1 (L497Y) current obtained through sniffer patch measurement by that of fully activated GluR1 (L497Y) current in the same cells.
(§4) The glutamate release through astrocytic CAACs was examined by using “sniffer-patch” technique and recording real-time glutamate release from cultured astrocytes (FIG. 10a). Using this technique, the present inventors observed that TFLLR-induced astrocytic glutamate release into an adjacent HEK293T cells expressing the non-desensitizing AMPA receptor subunit GluR1 (L497Y) mutant evoked an inward current sensitive to AMPA receptor antagonists, which is interpreted to reflect release of glutamate. The effects of TFLLR on current responses in transfected HEK293T cells was blocked by the treatment of niflumic acid (% block by niflumic acid=66.6±5.7%, FIGS. 10d to 10f), which is consistent with the idea that astrocytic CAAC is permeable to glutamate.

[2] = system: astrocytic CAAC / mBest1 channel (glutamate release); test: as above; type: cell-based, mouse; conditions: relative to scrambled shRNA
Method: as §1, §2, §3, §4

B1: mBest1 shRNA: mBest1-specific short hairpin RNA, SEQ ID NO: 3 and 4 (lentiviral: SEQ ID NO: 30), nucleotides 563-582 of mBest1 (nucleic acid)
chain 1: GATCCCCTTGCCAACTTGTCAATGAATTCAAGAGATTCATTGACAAGTTGGCAATTTTTA
chain 2: GGGAACGGTTGAACAGTTACTTAAGTTCTCTAAGTAACTGTTCAACCGTTAAAAATTCGA
percentage of GluR1 (L497Y)-mediated current to the fully activated GluR1 (L497Y) current by 1 mM glutamate [1]: 4.2±1.2% | remaining component of glutamate release from astrocytes by mBest1 knock-down [2]: about 33%
